B1: Galactose/lactose metabolism regulatory protein GAL80 (Saccharomyces cerevisiae), P04387 (parent)
chain: MDYNKRSSVSTVPNAAPIRVGFVGLNAAKGWAIKTHYPAILQLSSQFQITALYSPKIETSIATIQRLKLSNATAFPTLESFASSSTIDMIVIAIQVASHYEVVMPLLEFSKNNPNLKYLFVEWALACSLDQAESIYKAAAERGVQTIISLQGRKSPYILRAKELISQGYIGDINSIEIAGNGGWYGYERPVKSPKYIYEIGNGVDLVTTTFGHTIDILQYMTSSYFSRINAMVFNNIPEQELIDERGNRLGQRVPKTVPDHLLFQGTLLNGNVPVSCSFKGGKPTKKFTKNLVIDIHGTKGDLKLEGDAGFAEISNLVLYYSGTRANDFPLANGQQAPLDPGYDAGKEIMEVYHLRNYNAIVGNIHRLYQSISDFHFNTKKIPELPSQFVMQGFDFEGFPTLMDALILHRLIESVYKSNMMGSTLNVSNISHYSL
partner: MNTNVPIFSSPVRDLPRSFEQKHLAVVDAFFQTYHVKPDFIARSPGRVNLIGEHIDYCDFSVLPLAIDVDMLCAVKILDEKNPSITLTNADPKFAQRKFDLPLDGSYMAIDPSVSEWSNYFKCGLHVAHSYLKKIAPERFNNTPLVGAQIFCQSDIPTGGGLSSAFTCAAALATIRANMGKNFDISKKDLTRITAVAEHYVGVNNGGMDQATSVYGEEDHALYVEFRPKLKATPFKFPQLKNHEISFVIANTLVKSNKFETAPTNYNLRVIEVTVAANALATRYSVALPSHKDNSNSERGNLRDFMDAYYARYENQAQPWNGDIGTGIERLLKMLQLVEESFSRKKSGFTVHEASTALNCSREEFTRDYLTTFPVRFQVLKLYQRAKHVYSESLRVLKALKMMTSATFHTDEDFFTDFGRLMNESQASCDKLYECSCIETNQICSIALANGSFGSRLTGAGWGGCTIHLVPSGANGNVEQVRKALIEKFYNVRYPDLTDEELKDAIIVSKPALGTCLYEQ

The variants in this assay derive from B1. The note with it: with gal3_yeast GAL3, P13045.
Consider MDYNKRSSVSTVPNAAPIRVGFVGLNAAKGWAIKTHYPAILQLSSQFQITALYSPKIETSIATIQRLKLSNATAFPTLESFASSSTIDMIVIAIQVASHYEVVMPLLEFSKNNPNLKYLFVEWALACSLDQAESIYKAAAERGVQTIISLQGRKSPYILRAKELISQGYIGDINSIEIAGNGGWYGYERPVKSPKYIYEIGNGVDLVTTTFGHTIDILQYMTSSYFSRINAMVFNNIPEQELIDERGNRLGQRVPKTVPDHLLFQGTLLNGNVPVSCSFKGGKPTKKFTKNLVIDIHGTKGDLKLEGDAGFAEISNLVLYYSGTRANDFPLANGQQAPLDPGYDAGKEIMKVYHLRNYNAIVGNIHRLYQSISDFHFNTKKIPELPSQFVMQGFDFEGFPTLMDALILHRLIESVYKSNMMGSTLNVSNISHYSL [E351K], for which the “effect of a mutation on the interaction” value is “with no effect”.

Values taken from IntAct's records for PubMed 23858060.
